We go through one molecule from article PMC4930773, “Cataract-causing mutation S228P promotes βB1-crystallin aggregation and degradation by separating two interacting loops in C-terminal domain” (Protein & Cell, 2016).

The assay has as its target T1, wild type βB1-crystallin (human, UniProt P53674 1-252).
T1 construct: human βB1-crystallin (CRYBB1), cloned from a human lens cDNA library into pET28a; no cleavage of the tag is described; also called WT βB1; WT; source: E. coli BL21 (DE3), purified (Ni-NTA, Superdex 200 gel filtration); not shown: His tag, N-terminal, kept
T1 sequence (looked up): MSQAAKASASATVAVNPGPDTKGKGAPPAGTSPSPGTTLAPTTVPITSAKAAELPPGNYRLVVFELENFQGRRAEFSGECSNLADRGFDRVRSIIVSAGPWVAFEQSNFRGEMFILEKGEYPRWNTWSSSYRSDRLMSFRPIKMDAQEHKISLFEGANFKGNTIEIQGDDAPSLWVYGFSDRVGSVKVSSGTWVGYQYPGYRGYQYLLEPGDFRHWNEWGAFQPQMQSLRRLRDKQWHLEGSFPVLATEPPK
The assay can be described thus: SEC; equal molar homomers mixed and incubated at 37°C, aggregates removed by centrifugation; Superdex 200, buffer A (20 mmol/L sodium phosphate, 150 mmol/L NaCl, 1 mmol/L EDTA, 1 mmol/L DTT, pH 7.0), 30 µmol/L protein; SDS-PAGE of soluble and insoluble fractions alongside. As to conditions: both partners purified. On the technique in general: Size exclusion chromatography separates by hydrodynamic size, large species first.

B1: βA3-crystallin (natural protein, human, UniProt P05813 1-215, looked up)
chain: METQAEQQELETLPTTKMAQTNPTPGSLGPWKITIYDQENFQGKRMEFTSSCPNVSERSFDNVRSLKVESGAWIGYEHTSFCGQQFILERGEYPRWDAWSGSNAYHIERLMSFRPICSANHKESKMTIFEKENFIGRQWEISDDYPSLQAMGWFNNEVGSMKIQSGAWVCYQYPGYRGYQYILECDHHGGDYKHWREWGSHAQTSQIQSIRRIQQ
notes: source: E. coli BL21 (DE3), purified (Ni-NTA, Superdex 200 gel filtration)
Regarding B1, the binding result is recorded as “binds”.
